B1: LW25.5, individual helix 1 of LCB1 (peptide)
chain: DKEWILQKIYEIMRLLDEL
HELM: PEPTIDE1{[O=C1N[C@H]2[C@H](CS[C@H]2CCCCC(=O)[*:2])N1].[O=C(COCCOCCN[*:1])[*:2]].D.K.E.W.I.L.Q.K.I.Y.E.I.M.R.L.L.D.E.L.[am]}$$$$V2.0
SMILES: CC[C@H](C)[C@H](NC(=O)[C@H](Cc1c[nH]c2ccccc12)NC(=O)[C@H](CCC(=O)O)NC(=O)[C@H](CCCCN)NC(=O)[C@H](CC(=O)O)NC(=O)COCCOCCNC(=O)CCCC[C@@H]1SC[C@@H]2NC(=O)N[C@@H]21)C(=O)N[C@@H](CC(C)C)C(=O)N[C@@H](CCC(N)=O)C(=O)N[C@@H](CCCCN)C(=O)N[C@H](C(=O)N[C@@H](Cc1ccc(O)cc1)C(=O)N[C@@H](CCC(=O)O)C(=O)N[C@H](C(=O)N[C@@H](CCSC)C(=O)N[C@@H](CCCNC(=N)N)C(=O)N[C@@H](CC(C)C)C(=O)N[C@@H](CC(C)C)C(=O)N[C@@H](CC(=O)O)C(=O)N[C@@H](CCC(=O)O)C(=O)N[C@@H](CC(C)C)C(N)=O)[C@@H](C)CC)[C@@H](C)CC
notes: source: synthetic peptide (Fmoc/tBu solid-phase synthesis, preparative HPLC)
B2: LW25.6, individual helix 2 of LCB1 (peptide)
chain: GHAEASMRVSDLIYEFMKKG
HELM: PEPTIDE1{[O=C1N[C@H]2[C@H](CS[C@H]2CCCCC(=O)[*:2])N1].[O=C(COCCOCCN[*:1])[*:2]].G.H.A.E.A.S.M.R.V.S.D.L.I.Y.E.F.M.K.K.G.[am]}$$$$V2.0
SMILES: CC[C@H](C)[C@H](NC(=O)[C@H](CC(C)C)NC(=O)[C@H](CC(=O)O)NC(=O)[C@H](CO)NC(=O)[C@@H](NC(=O)[C@H](CCCNC(=N)N)NC(=O)[C@H](CCSC)NC(=O)[C@H](CO)NC(=O)[C@H](C)NC(=O)[C@H](CCC(=O)O)NC(=O)[C@H](C)NC(=O)[C@H](Cc1c[nH]cn1)NC(=O)CNC(=O)COCCOCCNC(=O)CCCC[C@@H]1SC[C@@H]2NC(=O)N[C@@H]21)C(C)C)C(=O)N[C@@H](Cc1ccc(O)cc1)C(=O)N[C@@H](CCC(=O)O)C(=O)N[C@@H](Cc1ccccc1)C(=O)N[C@@H](CCSC)C(=O)N[C@@H](CCCCN)C(=O)N[C@@H](CCCCN)C(=O)NCC(N)=O
notes: as for B1

Target: T1, SARS-CoV-2 spike protein RBD-Fc fusion protein, wild type (SARS-CoV-2, UniProt P0DTC2)
T1 construct: source: bought: Sino Biological
Test: ELISA
Settings: both partners purified

Binder	IC50 [nM]
B1	> 200
B2	> 200

Source: publication PMC9181698 (International Journal of Molecular Sciences, 2022)
